These results are taken from PMC6193743, “Phosphoglucomutase 1 inhibits hepatocellular carcinoma progression by regulating glucose trafficking”.

The target in data set [1] is T1, HIS-CNBP (Homo sapiens, UniProt P62633 1-177). As to the kind of experiment: competition; unlabeled G20 competes with biotin-G20; Chemiluminescent EMSA Kit (Thermo) binding buffer, room temperature, 20 min, 5% polyacrylamide gel; salt and pH not stated. The note with it: protein: recombinant; tags: His (pET-28a); potential G4.
T1 sequence (P62633 whole entry): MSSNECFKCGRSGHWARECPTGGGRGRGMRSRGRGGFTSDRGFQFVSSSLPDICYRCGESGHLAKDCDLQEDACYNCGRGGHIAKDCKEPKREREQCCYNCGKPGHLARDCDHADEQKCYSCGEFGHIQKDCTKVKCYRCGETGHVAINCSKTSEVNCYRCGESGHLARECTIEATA
For data set [2], the target named is T1, HIS-CNBP. Put plainly: EMSA; Chemiluminescent EMSA Kit (Thermo) binding buffer, room temperature, 20 min, 5% polyacrylamide gel; salt and pH not stated. To be noted: protein: recombinant; tags: His (pET-28a); potential G4.

B1: G20 unlabeled (ssDNA)
DNA: GGGCTGGCGCGGAGGGAGGG
On to B1, for which the binding result with HIS-CNBP [1] is recorded as “binds”.

B2: Biotin-G20 (ssDNA)
DNA: GGGCTGGCGCGGAGGGAGGG
For the molecule B2, in the data set with HIS-CNBP [2], the binding result is listed as “binds”.
